Data taken from patent publication US20250276077A1 (IMMUNOME, published 2025).
Changes are numbered by the printed parent chain.

B1: AB-009812 (antibody, mouse IgG2a, V domains shown)
VH: QVQLQQWGAGLLKPSETLSLTCAVYGGSFSDYYWSWIRQPPGKGLEWIGEVNHSGSINYNNYNPSLKSRVTISVDPSKNQFSLKLTSVTAADTAVYYCAKPLRPHCTNGVCYSGDAFDIWGQGTMVTVAS
VL: SYVLTQPPSVSVAPGQTARITCGGNNIGSKNVHWYQQKPGQAPVLVVYDDSDRPSGIPEQFSGSNSGNTATLTISRVEAGDEADYYCQVWDSSSDHLVFGGGTKLTVL
notes: Made on a mouse IgG2a framework
B2: AB-009815 (antibody, mouse IgG2a, V domains shown)
VH: B1 VH with S54R, P76T
VL: B1 VL
notes: as for B1
B3: AB-009813 (antibody, mouse IgG2a, V domains shown)
VH: B1 VH with S54A
VL: B1 VL
notes: as for B1
B4: AB-009808 (antibody, mouse IgG2a, V domains shown)
VH: QVQLQQWGAGLLKPSETLSLTCAVYGGSFSDYYWSWIRQPPGKGLEWIGEINHSGSTNYNPSLKSRVTISVDPSKNQFSLKLTSVTAADTAVYYCAKPFRPHCTNGVCYSGDAFDIWGQGTMVTVSS
VL: B1 VL
B5: AB-009805 (antibody, mouse IgG2a, V domains shown)
VH: B4 VH with F29L, Y33H, P73T, T83S, T86S, Y109H, V123A
VL: B1 VL
B6: AB-009807 (antibody, mouse IgG2a, V domains shown)
VH: B4 VH with S30N, I51V, N58S, P73T, T83S
VL: B1 VL with V44A
B7: AB-009806 (antibody, mouse IgG2a, V domains shown)
VH: B4 VH
VL: B1 VL with S29T
B8: AB-010363 (mouse IgG2a format) (antibody, V domains shown)
VH: B1 VH with D31G, V51I, S54R, P76T, T86S
VL: B1 VL with Q60R, L97V
notes: tested in mIgG2a format
B9: AB-008873 (mouse IgG2a format) (antibody, V domains shown)
VH: B1 VH with S54R
VL: SYVLTQPPSVSVAPGQTARITCGGNNIGSKNVHWYQQKPGQAPVLVVYDDSDRPSGIPEQFSGSNSGNTATLTISRVEAGDEADYYCQVWDSSSDHLVFGGGTKLTVLG
B10: AB-010361 (mouse IgG2a format) (antibody, V domains shown)
VH: B1 VH with D31G, V51I, S54R, P76T, T86S
VL: B1 VL with L97V
notes: tested in mIgG2a format
B11: AB-010146 (antibody, mouse IgG2a, V domains shown)
VH: B1 VH with S54R, P76T, A129S
VL: B1 VL
B12: AB-010150 (antibody, mouse IgG2a, V domains shown)
VH: B1 VH with S54R, P76T, T86S, A129S
VL: B1 VL
B13: AB-010148 (antibody, mouse IgG2a, V domains shown)
VH: B1 VH with V51I, S54R, P76T, T86S
VL: B1 VL
B14: AB-010151 (antibody, mouse IgG2a, V domains shown)
VH: B1 VH with V51I, S54R, P76T, T86S, A129S
VL: B1 VL
B15: AB-010147 (antibody, mouse IgG2a, V domains shown)
VH: B1 VH with S54R, P76T
VL: B1 VL with Q60R
B16: AB-010141 (antibody, mouse IgG2a, V domains shown)
VH: B1 VH with D31G, S54R, P76T
VL: B1 VL

biological target: T1, Human EphA2 (human, UniProt P29317 24-976); assay: IHC/IF on frozen human tumor tissue: Her2+ BRC
T1 construct: Endogenous EphA2 in fresh frozen human tumor tissue sections, not a recombinant protein; also called ephrin receptor A2; hEphA2

IHC score	Binder
2	B1
2	B2
1	B3

biological target: T2, Human EphA2 (ephrin receptor A2) on cells (human, UniProt P29317 25-976); assay: flow cytometry, A549 cells
Experimental: Surface binding of the antibodies to in vitro grown cell lines was assessed by flow cytometry. Tumor cells were detached from their culture plate using Versene and counted. Cells were staining in BSA-containing buffer with primary antibody for 30 minutes at 4° C. with shaking. Following, cells were washed and stained with secondary PE-labeled antibody for 30 minutes at 4° C. with shaking. Before analysis on an Intellicyt iQue3 scanner, cells were counterstained with DAPI. MedFI values from live, single cells was expressed as fold over isotype control.

Flow Delta activity (MedFI)	EC50 (read off the curve)	Binder
29500 MedFI	–	B4
75100 MedFI	–	B5
12700 MedFI	–	B6
231000 MedFI	~20 nM	B7

biological target: T1, Human EphA2; assay: IHC/IF on frozen human tumor tissue: ANC

IHC score	Binder
2	B1
2	B2
2	B3

biological target: T1, Human EphA2; assay: IHC/IF on frozen human tumor tissue: CRC

IHC score	Binder
1	B1
1	B2
1	B3

biological target: T1, Human EphA2; assay: IHC/IF on frozen human tumor tissue: NSCLC-Adeno

IHC score	Binder
2	B1
2	B2
2	B3

biological target: T2, Human EphA2 (ephrin receptor A2) on …; assay: cell-based or functional assay

ADCC Delta activity (%), A549	ADCP Delta activity (%), A549	Binder
1.31%	12.8%	B4
5.06%	17.3%	B5
0.4%	11.5%	B6
14.5%	17.9%	B7

biological target: T1, Human EphA2; assay: IHC/IF on frozen human tumor tissue: RCC-papillary

IHC score	Binder
1	B1
1	B2
1	B3

biological target: T1, Human EphA2; assay: IHC/IF on frozen human tumor tissue: GAC

IHC score	Binder
2	B1
2	B2
2	B3

biological target: T1, Human EphA2; assay: IHC/IF on frozen human tumor tissue: ER+ BRC

IHC score	Binder
1	B1
1	B2
1	B3

biological target: T1, Human EphA2; assay: IHC/IF on frozen human tumor tissue: ESO

IHC score	Binder
2	B1
2	B2
2	B3

biological target: T1, Human EphA2; assay: IHC/IF on frozen human tumor tissue: NSCLC-SQ

IHC score	Binder
1	B1
1	B2
1	B3

biological target: T1, Human EphA2; assay: IHC/IF on frozen human tumor tissue: UCEC-clear cell

IHC score	Binder
1	B1
2	B2
2	B3

biological target: T1, Human EphA2; assay: IHC/IF on frozen human tumor tissue: MELA

IHC score	Binder
2	B1
2	B2
2	B3

biological target: T3, C-terminally His-tagged hEphA2-FN2 (Thr437-Asn534+His tag) (human, UniProt P29317 437-534); assay: SPR Biacore T200, 25 C; mIgG2a captured by anti-mouse Fc, hEphA2-FN2-His analyte; steady-state monovalent KD
T3 construct: also called FN2 domain of hEphA2
Experimental: Binding of antibodies to the FN2 domain of hEphA2 was measured using the Biacore® T200 SPR system at 25° C. using HBS-EP+ buffer (0.01 M HEPES pH 7.4, 0.15 M NaCl, 3 mM EDTA, 0.005% v/v Surfactant P20). Antibodies in mIgG2a format were captured at levels between 475-715 RU via an anti-mouse Fc antibody immobilized to a CM5 chip. Binding was assessed using a titration of C-terminally His-tagged hEphA2-FN2 (Thr437-Asn534+His tag) associated for 30 s or 75 s at 30 μL/min. Data was double-reference subtracted using both a surface without captured antibody and from injections of HBS-EP+ buffer. The equilibrium response was measured at 4 seconds before the end of association with a window of 5 seconds and fit using the Biacore T200 Evaluation Software 3.1 with the Steady State Affinity Model.

Kd	Binder
1310 nM	B8
2260 nM	B9
1110 nM	B10

biological target: T1, Human EphA2; assay: IHC/IF on frozen human tumor tissue: STS

IHC score	Binder
2	B1
2	B2
2	B3

biological target: T1, Human EphA2; assay: IHC/IF on frozen human tumor tissue: PANC

IHC score	Binder
1	B1
1	B2
1	B3

biological target: T1, Human EphA2; assay: IHC/IF on frozen human tumor tissue: UCEC-endometrioid

IHC score	Binder
1	B1
1	B2
1	B3

biological target: T1, Human EphA2; assay: IHC/IF on frozen human tumor tissue: RCC-clear cell

IHC score	Binder
1	B1
1	B2
1	B3

biological target: T1, Human EphA2; assay: IHC/IF on frozen human tumor tissue: URO

IHC score	Binder
1	B1
1	B2
1	B3

biological target: T1, Human EphA2; assay: IHC/IF on frozen human tumor tissue: HNC

IHC score	Binder
2	B1
2	B2
2	B3

biological target: T1, Human EphA2; assay: IHC/IF on frozen human tumor tissue: OVA

IHC score	Binder
2	B1
2	B2
2	B3

biological target: T1, Human EphA2; assay: IHC/IF on frozen human tumor tissue: TNBC

IHC score	Binder
1	B1
1	B2
1	B3

biological target: T1, Human EphA2; assay: IHC/IF on frozen human tumor tissue: UCEC-papillary

IHC score	Binder
2	B1
2	B2
2	B3

biological target: T1, Human EphA2; assay: IHC/IF on frozen human tumor tissue: PROC

IHC score	Binder
1	B1
1	B2
1	B3

biological target: T2, Human EphA2 (ephrin receptor A2) on …; assay: cell-based or functional assay; remark: another data set of the same source

ADCC EC50	Binder
66.8 nM	B11
65.9 nM	B12
45 nM	B13
33.3 nM	B14
79.4 nM	B15
4.6 nM	B16
